Target: microtubule (in vitro reconstituted, taxol-stabilised)
Test: cell-based or functional assay

kinesin (positive control motor protein in the gliding assay)
% of gliding microtubules (n = 50), ATP: 89.2%
Maximum gliding speed, ATP: 0.27 µm/min
Mean gliding speed, ATP: 0.17 µm/min
